# Measured values from patent publication US20110086770A1 (ANAPHORE, published 2011).
# Residue numbers refer to the chain shown, from its start. In names and notes the source's numbering stands.
# B1: 9b3d (=B3D) DR 5 ATRIMER (designed binder)
# chain: EPPTQKPKKIVNAKKDVVNTKMFEELKSRLDTLAQEVALLKEQQALQTVCLKGTKVHMKCFLAFTQTKTFHEASEDCISRGGTLSTPQTGSENDALYEYLRQSVGNEAEIWLGLNELRTDGLWVDMTGARIAYKNWETEITAQPDGGVMRRSENCAVLSGAANGKWFDKRCRDQLPYICQFGIV
# modifications: Homotrimer (ATRIMER) of this chain; one protomer is given.
# notes: also called 029-15.B3D; not shown: C-terminal tag (His/Myc of pANA4, HA-StrepII of pANA10, or that of pANA19)
# B2: 2a1a (=B9F) DR 5 ATRIMER (designed binder)
# chain: B1 chain with E116K, L117R, R118V, T119W, D120Y, G121R, L122G, V148M, M149R, S152R
# modifications: Homotrimer (ATRIMER) of this chain; one protomer is given.
# notes: also called 029-15.B9F; not shown: C-terminal tag (His/Myc of pANA4, HA-StrepII of pANA10, or that of pANA19)
# B3: 1a7b (=A8G) DR 5 ATRIMER (designed binder)
# chain: EPPTQKPKKIVNAKKDVVNTKMFEELKSRLDTLAQEVALLKEQQALQTVCLKGTKVHMKCFLAFTQTKTFHEASEDCISRGGTLSTPQTGSENDALYEYLRQSVGNEAEIWLGLNRAWLRPRWVDMTGARIAYKNWETEITAQPDGGTLVSGENCAVLSGAANGKWFDKRCRDQLPYICQFGIV
# modifications: Homotrimer (ATRIMER) of this chain; one protomer is given.
# notes: also called 029-15.A8G; not shown: C-terminal tag (His/Myc of pANA4, HA-StrepII of pANA10, or that of pANA19)
# B4: 8b6b (=A1H) DR 5 ATRIMER (designed binder)
# chain: B3 chain with W118V, T148W, L149V, V150L, S151G, E153K
# modifications: Homotrimer (ATRIMER) of this chain; one protomer is given.
# notes: also called 029-15.A1H; not shown: C-terminal tag (His/Myc of pANA4, HA-StrepII of pANA10, or that of pANA19)
# B5: 101-51-1A5 ATRIMER (designed binder)
# chain: EPPTQKPKKIVNAKKDVVNTKMFEELKSRLDTLAQEVALLKEQQALQTVCLKGTKVHMKCFLAFTQTKTFHEASEDCISRGGTLSTPQTGSENDALYEYLRQSVGNEAEIWLGLNGSALTNTWVDMTGARIAYKNWENGHEPQPRGGFGYFGENCAVLSGAANGKWFDKRCRDQLPYICQFGIV
# B6: 105-20-1B3 ATRIMER (designed binder)
# chain: B5 chain with N138T, G139E, H140I, E141T, P142A, R145D
# notes: not shown: C-terminal tag: Myc/His6 (pANA4) or HA-StrepII (pANA10); A Ser left at the ompA junction may also sit at the N-terminus
# B7: 105-78-2D1 ATRIMER (designed binder)
# chain: B5 chain with A118L, L119R, N121H, N138T, G139E, H140I, E141T, P142A, R145D, Y150V
# notes: as for B6
# B8: 101-51-1A9 ATRIMER (designed binder)
# chain: B5 chain with N138P, G139A, H140R, E141Q, R145G
# modifications: ATRIMER is a homotrimer; one protomer is given.
# notes: not shown: C-terminal purification tag: Myc/His6 (pANA4) or HA-StrepII (pANA10)
# B9: 105-59-3B5 ATRIMER (designed binder)
# chain: B5 chain with A118P, L119I, N121D, N138T, G139E, H140I, E141T, P142A, R145D, Y150V
# notes: as for B8
# B10: 105-61-4G5 ATRIMER (designed binder)
# chain: B5 chain with A118P, N138T, G139E, H140I, E141T, P142A, R145D, Y150V
# notes: as for B6
# B11: 105-08-1A3 ATRIMER (designed binder)
# chain: B3 chain with R116G, A117S, W118P, L119R, R120T, P121D, R122T, T148W, L149G, S151F
# notes: as for B6
# B12: 101-113-6C102 ATRIMER (designed binder)
# chain: EPPTQKPKKIVNAKKDVVNTKMFEELKSRLDTLAQEVALLKEQQALQTVCLKGTKVHMKCFLAFTQTKTFHEASEDCISRGGTLSTPQTGSENDALYEYLRQSVGNEAEIWLGLNGSNVTQTWVDMTGARIAYKNWEPPPPHHPQGGFGVFGENCAVLSGAANGKWFDKRCRDQLPYICQFGIV
# modifications: ATRIMER is a homotrimer; one protomer is given.
# notes: as for B8
# B13: 105-20-2A3 ATRIMER (designed binder)
# chain: B5 chain with A118P, L119I, N138T, G139E, H140I, E141T, P142A, R145D
# notes: as for B6
# B14: 101-54-4B10 ATRIMER (designed binder)
# chain: B5 chain with N138R, G139P, H140P, E141L, P142Y, R145G
# modifications: ATRIMER is a homotrimer; one protomer is given.
# notes: as for B8
# B15: 105-20-2F12 ATRIMER (designed binder)
# chain: B5 chain with A118K, N121D, N138T, G139E, H140I, E141T, P142A, R145D
# notes: not shown: C-terminal tag: His/Myc (pANA4) or HA-StrepII (pANA10)
# B16: 105-78-2E6 ATRIMER (designed binder)
# chain: B5 chain with A118L, L119R, N138T, G139E, H140I, E141T, P142A, R145D, Y150V
# notes: as for B8
# B17: 105-61-4G3 ATRIMER (designed binder)
# chain: B5 chain with A118L, L119R, N121D, N138T, G139E, H140I, E141T, P142A, R145D, Y150V
# notes: as for B8
# B18: 101-80-5H3 ATRIMER (designed binder)
# chain: EPPTQKPKKIVNAKKDVVNTKMFEELKSRLDTLAQEVALLKEQQALQTVCLKGTKVHMKCFLAFTQTKTFHEASEDCISRGGTLSTPQTGSENDALYEYLRQSVGNEAEIWLGLNGSALTNTWVDMTGARIAYKNWEPPAPYHPMAAGVFGENCAVLSGAANGKWFDKRCRDQLPYICQFGIV
# modifications: ATRIMER is a homotrimer; one protomer is given.
# notes: one residue deleted from Loop 4 (-GVFG); the GlyGly to AlaAla change; not shown: C-terminal purification tag: Myc/His6 (pANA4) or HA-StrepII (pANA10)
# B19: B9B ATRIMER (designed binder)
# chain: B1 chain with E116A, L117P, R118P, T119D, D120L, V148W, M149G, R150V, R151W, S152G
# modifications: Forms a homotrimer through the tetranectin coiled coil; one protomer is given.
# notes: also called 056-41.B9B
# B20: C3C ATRIMER (designed binder)
# chain: B3 chain with R116A, A117N, W118R, L119R, P121T, R122M, T148M, L149G, S151W
# modifications: Forms a homotrimer through the tetranectin coiled coil; one protomer is given.
# notes: also called 001-89.C3C
# B21: A4A ATRIMER (designed binder)
# chain: B1 chain with E116W, L117T, R118L, T119A, D120K, G121N, V148L, M149F, R150G, S152G
# modifications: Forms a homotrimer through the tetranectin coiled coil; one protomer is given.
# notes: also called 001-87.A4A
# Molecular target: recombinant human DR 5 receptor Fc fusion protein (R&D Systems) (human)
# Assay: SPR (Biacore), captured DR5/Fc
# Chain of recombinant human DR 5 receptor Fc fusion protein (R&D Systems) (human) (chain, as listed by the source): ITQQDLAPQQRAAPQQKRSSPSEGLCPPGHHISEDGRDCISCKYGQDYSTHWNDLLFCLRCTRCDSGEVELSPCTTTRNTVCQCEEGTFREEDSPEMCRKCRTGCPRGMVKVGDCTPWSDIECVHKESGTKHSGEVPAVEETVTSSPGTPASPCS
Ka,Kd,koff,kon,Binder
1.11e+06 M⁻¹,899 nM,0.000104 s⁻¹,116 M⁻¹ s⁻¹,B1
2.38e+07 M⁻¹,42.8 nM,0.00184 s⁻¹,43800 M⁻¹ s⁻¹,B2
6.43e+07 M⁻¹,15.6 nM,0.000629 s⁻¹,40500 M⁻¹ s⁻¹,B3
2.56e+07 M⁻¹,39.1 nM,0.000506 s⁻¹,12900 M⁻¹ s⁻¹,B4

# Molecular target: T1, recombinant human IL-23R/Fc chimera (R&D Systems) (human, UniProt Q5VWK5 24-353)
# T1 construct: bought; also called human IL-23R/Fc fusion protein; rhIL23RFc
# T1 sequence (looked up): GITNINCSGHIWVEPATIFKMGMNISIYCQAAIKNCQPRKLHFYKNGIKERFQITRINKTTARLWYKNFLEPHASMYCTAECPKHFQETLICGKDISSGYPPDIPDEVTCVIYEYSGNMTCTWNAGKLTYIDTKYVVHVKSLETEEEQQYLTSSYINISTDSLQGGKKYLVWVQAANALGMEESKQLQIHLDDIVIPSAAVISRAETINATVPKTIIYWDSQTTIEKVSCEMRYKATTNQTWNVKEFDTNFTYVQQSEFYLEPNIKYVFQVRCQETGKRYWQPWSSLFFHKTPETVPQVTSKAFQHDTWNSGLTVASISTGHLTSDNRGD
# Assay: competition ELISA against IL-23
# Method: Assays were performed generally as follows. Individual wells in Immulon HB2 plates were incubated overnight at 4° C. with 100 μL PBS containing 100 ng of an anti-human IgG Fc (R&D MAB 110 clone 97924). Plates were washed five times with PBS/0.05% Tween 20, and wells were incubated for 1.5 h at RT with 100 μL each of PBS containing 50 ng of recombinant human IL-23R/Fc. […] Competitor was included at a final concentration of 1 μg/mL. After incubation, plates were washed as described and wells were incubated for 40 min at RT with 100 μL each of PBS containing a 1:5000 dilution of streptavidin-HRP conjugate (Pierce catalog no. 21130). After washing, wells were incubated with 100 μL each of TMB (BioFX Lab catalog no. TMBH-1000-0) for up to 30 min at RT. Reactions were stopped with an equal volume of 0.2 M sulfuric acid.
row,Ratio IC50 to 056-53.H4E IC50,Binder
1,1 ratio,B5
2,1.2 ratio,B6
3,1.3 ratio,B7
4,2.2 ratio,B8
5,0.8 ratio,B9
6,1 ratio,B10
7,1.1 ratio,B11
8,2 ratio,B12
9,1.2 ratio,B13
10,1.4 ratio,B14
11,2.8 ratio,B15
12,1 ratio,B16
13,0.8 ratio,B17
14,11.3 ratio,B18

# Molecular target: T1, recombinant human IL-23R/Fc chimera …
# Assay: SPR (Biacore), captured IL-23R/Fc, ATRIMER
# Method: A Biacore 3000 biosensor (GE Healthcare) was used to evaluate the interaction of human IL-23R and receptor binders. Immobilization of an anti-human IgG Fc antibody (GE Heathcare) to the CM5 chip (Biacore) was performed using standard amine coupling chemistry, and this modified surface was used to capture a recombinant human IL-23R/Fc fusion protein (R&D Systems). A low-density receptor surface, less than 200 RU, was used for all of the analyses. ATRIMER™ polypeptide complex dilutions (1-500 nM) were injected over the IL-23R surface at 30 μl/min and kinetic constants were derived from the sensorgram data using the Biaevaluation software (version 3.1, GE Healthcare). Data collection was 3 minutes for the association and 5 minutes for dissociation. The anti-human IgG surface was regenerated with a 30 s pulse of 3M magnesium chloride. All sensorgrams were double-referenced against an activated and blocked flow-cell as well as buffer injections.
Ka,Kd,koff,kon,Binder
1.71e+09 M⁻¹,0.584 nM,0.000289 s⁻¹,495000 M⁻¹ s⁻¹,B5
1.05e+09 M⁻¹,0.955 nM,0.000329 s⁻¹,345000 M⁻¹ s⁻¹,B8
1.94e+08 M⁻¹,5.15 nM,0.000478 s⁻¹,92800 M⁻¹ s⁻¹,B19
1.2e+08 M⁻¹,8.34 nM,0.000483 s⁻¹,57900 M⁻¹ s⁻¹,B20
2.11e+09 M⁻¹,0.473 nM,0.000348 s⁻¹,735000 M⁻¹ s⁻¹,B11
9.62e+08 M⁻¹,1.04 nM,0.000283 s⁻¹,271000 M⁻¹ s⁻¹,B12
1.32e+09 M⁻¹,0.759 nM,0.000312 s⁻¹,412000 M⁻¹ s⁻¹,B13
1.11e+09 M⁻¹,0.897 nM,0.000429 s⁻¹,479000 M⁻¹ s⁻¹,B14
5.41e+08 M⁻¹,1.85 nM,0.000471 s⁻¹,254000 M⁻¹ s⁻¹,B15
1.24e+08 M⁻¹,8.08 nM,0.000409 s⁻¹,50600 M⁻¹ s⁻¹,B21
1.55e+08 M⁻¹,6.46 nM,0.000327 s⁻¹,50500 M⁻¹ s⁻¹,B18
